Experiment [1] deals with IgK leader-ALFA Tag-RR Zip-Myc Tag-PDGFRβ TM-sfGFP. The experiment can be described thus: flow cytometry cell binding. A general note: In flow cytometry, cells or beads pass a laser one at a time.
Experiment [2] shares this target. The experiment can be described thus: flow.

B1: AM0627-35 aa Linker-EE Zip (enzyme)
chain: ANTPEHIGNDLKLFKDSSCTSLKPDVKNTSAFQSDAMKELATKILAGHYKPDYLYAEYRALPSPRQTGKNLRIGDGFSKYDNMTGVYLEKGRHVVLVGKTEGQEISLLLPNLMRKPAEGVQPTKDPNGWGLHKKQIPLKEGINIIDVETPANAYISYFTEDAGKAPKIPVHFVTGKANGYFDTTRGDTNKDWVRLLDQAVSPIMDARGKYIQVAYPVEFLKKFTKDRGTELINAYDKLIGIQYQLMGLDKYGKIPENRVLARVNFNYYMFRDGDGVAYLGNDGTMRMVTDPENVLKGDACWGFSHEVGHVMQMRPMTWGGMTEVSNNIFSLQAAAKTGNESRLKRQGSYDKARKEIIEGEIAYLQSKDVFNKLVPLWQLHLYFTKNGHPDFYPDVMEYLRNNAGNYGGNDTVKYQFEFVKACCDVTKTDLTDFFEKWGFFKPGKFHIGDYAQYDFNVTPEMVEETKKWIAGKGYPKPETDITELSEGGGGSGGGGSGGGGSGGGGSGGGGSGGGGSGGGGSMDPDLEIEAAFLERENTALETRVAELRQRVQRLRNRVSQYRTRYGPLGGGK
In general, Kd refers to a measure of binding affinity in units of concentration. B1: the dissociation constant (Kd) in experiment [1] is around 0.45 nM.

B2: StcE ΔX409-35 aa Linker-EE Zip (enzyme)
chain: ADNNSAIYFNTSQPINDLQGSLAAEVKFAQSQILPAHPKEGDSQPHLTSLRKSLLLVRPVKADDKTPVQVEARDDNNKILGTLTLYPPSSLPDTIYHLDGVPEGGIDFTPHNGTKKIINTVAEVNKLSDASGSSIHSHLTNNALVEIHTANGRWVRDIYLPQGPDLEGKMVRFVSSAGYSSTVFYGDRKVTLSVGNTLLFKYVNGQWFRSGELENNRITYAQHIWSAELPAHWIVPGLNLVIKQGNLSGRLNDIKIGAPGELLLHTIDIGMLTTPRDRFDFAKDKEAHREYFQTIPVSRMIVNNYAPLHLKEVMLPTGELLTDMDPGNGGWHSGTMRQRIGKELVSHGIDNANYGLNSTAGLGENSHPYVVAQLAAHNSRGNYANGIQVHGGSGGGGIVTLDSTLGNEFSHEVGHNYGLGHYVDGFKGSVHRSAENNNSTWGWDGDKKRFIPNFYPSQTNEKSCLNNQCQEPFDGHKFGFDAMAGGSPFSAANRFTMYTPNSSAIIQRFFENKAVFDSRSSTGFSKWNADTQEMEPYEHTIDRAEQITASVNELSESKMAELMAEYAVVKVHMWNGNWTRNIYIPTASADNRGSILTINHEAGYNSYLFINGDEKVVSQGYKKSFVSDGQFWKERDVVDTREARKPEQFGVPVTTLVGYYDPEGTLSSYIYPAMYGAYGFTYSDDSQNLSDNDCQLQVDTKEGQLRFRLANHRANNTVMNKFHINVPTESQPTQATLVCNNKILDTKSLTPAPEGLTYTVNGGGGSGGGGSGGGGSGGGGSGGGGSGGGGSGGGGSMDPDLEIEAAFLERENTALETRVAELRQRVQRLRNRVSQYRTRYGPLGGGK
For the molecule B2, in experiment [2], the dissociation constant (Kd) was around 3.09 nM.

B3: BT4244-35 aa Linker-EE Zip (enzyme)
chain: FSISEEYLIQNLDKSSTSVQIPINTSMELAQWSVSYEANWLQCSKQKTAAEGTFLRITVNENTGETKRTANIKVTSTTATYTITVNQYAKGEVIVEGDIKVTPTGGKASEHQEGQDIENTYDGKFSTDGAAPFHTPWGQSAKFPVTLEYYFKGDTEIDYLIYYTRSGNGNFGKVKVYTTTNPDRSDYTLQGEYDFKEQNAPSKVSFSEGIKATGIKFEVLSGLGDFVSCDEMEFYKTNTDKTLDKQLLTVFTDITCTEIKNNVTNEQIQALPDYFVRIAEAVRDNTYDKWEKEFRIRSYEPYSNIAEWADKLMTKKYSDLDNPTGISVKAGDDIIVLVGDTYGQNISMQCIWETGTEYKQTASSGDVYMLNPGVNKLTMKGEGQLFVMYNTELTSNTAKPIKIHIPLGSGTVNGFFDLKEHKTDEKYAELLKKSTHKYFCIRGEKIMFYFHRNKLLEYVPNNILSAIHLWDNIVGWQQELMGIDDVRPSQVNNHLFAISPEGSYMWASDYQIGFVYTYLGNILLEDNVMAAEDNAWGPAHEIGHVHQAAINWASSTESSNNLFSNFIIYKLGKYKSRGNGLGSVATARYANGQAWYNMGDATHQNEDTETHMRMNWQLWIYYHRCEYKTDFWQTLFKLMREVNMTEGEDPGKKQLEFAKMASKAANQNLTDFFEMWGFFEPVNTTIEQYGTYKYYVSDAMIREAKEYMAQFPAPKHAFQYIEDRKKSEFPSNDYRYSAVGDVGYYTQFKENQKITKAITAELAGRKVSIQNGDEAVAFELRENDENGKLLYFSTFTTFEIPSSILMGGGGSGGGGSGGGGSGGGGSGGGGSGGGGSGGGGSMDPDLEIEAAFLERENTALETRVAELRQRVQRLRNRVSQYRTRYGPLGGGK
The molecule B3 displayed a Kd in experiment [1] of around 2.54 nM.

Source of the values: patent US20250152627A1 (published 2025).
